Measured values: paper PMC8219829

Molecular target: protective antigen PA63 heptameric pore (PA_(pore)) (Bacillus anthracis)
Test: cryo-EM structure

Question: Which stoichiometry N does the source give for “protective antigen PA63 heptameric pore (PA_(pore)) (natural protein)” here?
Answer: 7
